According to patent US20220372112A1 (KEYMED BIOSCIENCES, published 2022):

Columns and labels:
[1] = target: T1, human Claudin 18.2 (human, UniProt P56856-2 1-261); assay: flow cytometry (iQue) on cells, antibody from 100 nM in 5-fold steps; cell line not named in Example 5
T1 construct: whole, on cells
T1 sequence (looked up): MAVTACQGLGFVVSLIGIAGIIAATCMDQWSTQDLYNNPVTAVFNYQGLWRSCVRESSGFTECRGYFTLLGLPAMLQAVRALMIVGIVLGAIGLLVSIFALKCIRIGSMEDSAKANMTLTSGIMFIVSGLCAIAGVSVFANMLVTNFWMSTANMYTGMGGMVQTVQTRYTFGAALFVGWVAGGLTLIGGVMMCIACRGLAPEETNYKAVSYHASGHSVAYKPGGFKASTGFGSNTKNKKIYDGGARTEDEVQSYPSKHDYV
Procedure: The cells at logarithmic growth phase were taken, blocked with 3% BSA for 30 minutes, plated at 5×10⁴ cells/100 μL into a U-shaped 96-well plate, centrifuged at 1100 rpm for 3 minutes, the supernatant was discarded, the cells were gently patted and loosed, 50 μL of antibody diluted according to the series was added to each well (antibody concentration starts from 100 nM, 5 times dilution in 8 series), incubated at 4° C. for 1 hour. After the incubation, 140 μL of 0.5% BSA was added to each well to wash 3 times, AF 647 APC anti-human secondary antibody was added with 30 μL/well and incubated at 4° C. for 40 minutes. After the incubation, 140 μL of 0.5% BSA was added to each well to wash 3 times, and finally resuspended each well with 50 μL PBS for iQue (Intellicyt, USA) detection (shown in Table 2).

[2] = target: T1, human Claudin 18.2; assay: flow cytometry (iQue) on HEK293-Claudin 18.2 cells, chimeric IgG1
Procedure: (§1) The HEK293-Claudin 18.1 cells, HEK293-Claudin 18.2 cells and HEK293 cells at logarithmic growth phase were taken, after digesting, added at 5×10⁴ cells/100 μL to the U-shaped 96-well plate, centrifuged at 1100 rpm for 3 minutes, the supernatant was discarded, the cells were gently patted and loosed, 50 μL of antibody diluted according to the series was added to each well (antibody concentration starts from 100 nM, 5 times dilution in 8 series), and incubate at 4° C. for 1 hour. After the incubation, 140 μL 0.5% BSA was added to each well to wash 3 times, the secondary antibody AlexaFluro647 anti-human IgG (Jackson ImmunoResearch, catalog number: 109-606-170) was added with 30 μL/well, and incubated at 4° C. for 40 minutes. After the incubation, 140 μL 0.5% BSA was added to each well to wash 3 times, and finally resuspended each well with 50 μL PBS for flow cytometry (iQue Screener) detection.

[3] = target: T2, human Claudin 18.1 (human, UniProt P56856 1-261); assay: flow cytometry on HEK293-Claudin 18.1 cells, chimeric IgG1
T2 construct: whole, on cells
T2 sequence (looked up): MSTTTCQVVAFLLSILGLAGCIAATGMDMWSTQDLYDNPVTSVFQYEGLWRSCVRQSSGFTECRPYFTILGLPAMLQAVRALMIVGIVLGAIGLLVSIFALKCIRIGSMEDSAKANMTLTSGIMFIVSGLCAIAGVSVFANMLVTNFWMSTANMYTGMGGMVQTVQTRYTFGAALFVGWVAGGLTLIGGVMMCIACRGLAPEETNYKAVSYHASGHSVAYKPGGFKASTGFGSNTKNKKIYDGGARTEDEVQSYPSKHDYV
Procedure: as §1

EC50 [1]: 2.07 nM
EC50 [2]: 0.37 nM
B1: 18D10 (antibody, V domains shown)
VH: DVQLQESGPGLVKPSQSLSLTCTVTGYSITSNYAWNWIRQFPGNKLEWMGYINYSGNTNYNPSLKSRISITRDTSKNQFFLQLNSVTAEDTATYYCATSYYGNSFIYWGQGTLVTVSA
VL: DIVMTQSPSSLTVTAGEKVTMSCKSSQSLLNSGNQKNYLTWYQQKPGQPPKLLIYWASTRESGVPDRFTGSGSGTDFTLTISSVQAEDLAVYYCQNAYSFPWTFGGGTKLEIK
notes: also called Clone 18D10; 18D10 Chimera
binding result [3]: no binding (tested: 100 nM (highest concentration tested))
